{"source": "patent US20100028352A1", "biological_target": "Gi-GPCRs on endothelial cells", "test": "cell-based or functional assay"}
{"substance": "Full-length recombinant human GlyRS (from UniProt P41250 55-739) (enzyme)", "values": [{"measurement": "inhibition of forskolin-stimulated cAMP production, 25 and 100 nM uncleaved GlyRS", "value": 10, "unit": "%"}]}
